Publication PMC8299219 (Cell, 2021)
Numbering of substitutions follows the chain as printed.

B1: C81B10 (antibody, V domains shown)
VH: QLQLQESGPGLVKPSQTLSLTCTVSGGSISSGDYYWSWIRQPPGKGLEWIGYIYYSGSTYYNPSLKSRVTISVDTSKNQFSLKLSSVTAADTAVYYCARVRGTYYYVSGSYYPRPLYYYYMDVWGKGTTVTVSS
VL: not shown
B2: C41N3 (antibody, V domains shown)
VH: EVQLVESGGGLVQPGRSLRLSCAASGFTFDDYAMHWVRQAPGKGLEWVSGISWQSGSIGYADSVKGRFTISRDNAKNSLYLQMNSLRAEDTALYYCAKDPGYDSSGYYYDYWGQGALVTVSS
VL: not shown
B3: C12B10 (antibody, V domains shown)
VH: EVQLVESGGGLVQPGGSLRLSCAASGFTFSSYAMHWVRQAPGKGLEYVSAINSYGGSTYYANSVKGRFTISRDNSKNTLYLQMGSLRAEDMAVYYCAREVQGVATMDGAFDIWGQGTMVTVSS
VL: SYELTQPPSVSVAPGKTARITCGGNNIGSKSVHWYQQKPGQAPVLVIYYDSDRPSGIPERFSGSNSGNTATLTISRVEAGDEADYYCQVWDSSSDPHWVFGGGTKLTVL
B4: C81G9 (antibody, V domains shown)
VH: EVQLVESGGGLVQPGGSLRLSCAASGFTFSSYSVNWVRQAPGKGLEWVSYISSSSLTIYYADSVKGRFIISRDNAKNSLYLQMNSLRDEDTAVYHCAREGPSSSWFSYYYMDVWGKGTTVTVSS
VL: QSALTQPASVSGSPGQSITISCTGTSSDVGSYNLVSWYQQHPGKAPKLMIYEGSKRPSGVSNRFSGSKSGNTASLTISGLQAEDEAEYYCCSYAGSSTSPYVFGTGTKVTAL
B5: C12E9 (antibody, V domains shown)
VH: QVQLVQSGAEVKKPGSSVKVSCKASGGTFSSYAISWVRQAPGQGLEWMGGIIPIFGTASYAQKFQGRVTITADESTSTAYMELSSLRSEDTAVYYCARGSVGLGGDCYQCGYYFDYWGQGTLVTVSS
VL: not shown
B6: C53E4 (antibody, V domains shown)
VH: QVQLVQSGAEVKKPGASVKVSCKASGYTYTSYGISWVRQAPGRGLEWMGWISAYNGNTNYAQKLQGRVTMTTDTSTSTAYMELRSLRSDDTAVYYCARDQGLWYYYDSSGFALDYWGQGTLVTVSS
VL: EIVLTQSPATLSLSPGERATLSCRASQSVSSYLAWYQQKPGQAPRLLIYDASNRATGIPARFSGSGSGTDFTLTISSLEPEDFAVYYCQQRSNWPRYTFGQGTKLEIK
B7: C53E6 (antibody, V domains shown)
VH: EVQLVESGGGLVKPGGSLKLSCAASGFTFSSYSMNWVRQAPGKGLEWVSSISSSSSYIYYADSVKGRFTISRDNAKNSLYLQMNSLRAEDTAVYYCARASYDFWSGQDHWFDPWGQGTLVTVSS
VL: B6 VL with R61K, R96P, Y97I, K104R
B8: G32L2 (antibody, V domains shown)
VH: QVQLVESGGGVVQPGTSLRLSCAASGFTFSNYDIHWVRQAPGKGLEWVAVISYDGSNKYYADSVKGRFTISRDNSKNTLYLQMNSLRAEDTAVYYCAKDLVLRYFDWLFDGPDYWGQGTLVTVSS
VL: SYELTQPPSVSVSPGQTARITCSGDALPKKYAYWYQQKSGQAPVLVIYEDSKRPSGIPERFSGSSSGTMATLTISGAQVEDEADYYCYSTDSSGNHGVFGGGTKLTVL
B9: C12C6 (antibody, V domains shown)
VH: QVQLVESGGGVVQPGRSLRLSCAASGFTFSSYAMHWVRQAPGKGLEWVAVISYDGSNKHYADSVKGRFTISRDNSKNTLYLQMNSLRAEDTAVYYCARDPQYCSSTSCSMGVGWFDPWGQGTLVTVSS
VL: SYELTQPPSVSVAPGKTARITCGGNNIGSKSVHWYQQKPGQAPVLVIYYDSDRPSGIPERFSGSNSGNTATLTISRVEAGDEADYYCQVWDSSSDHAYWVFGGGTKLTVL
B10: C83A7 (antibody, V domains shown)
VH: QVQLQESGPGLVKPSETLSLTCTVSGGSVSSGSYYWSWIRQPPGKGLEWIGYIYYSGRTNYNPSLKSRVTISVDTSKNQFSLKLSSVTAADTAVYYCARTVITMIVGNWYFDLWGRGTLVTVSS
VL: not shown
B11: G32Q2 (antibody, V domains shown)
VH: EVQLLESGGGLVQPGGSLRLSCAASGFTFSNYAMSWVRQAPGKGLEWVSAISGSGSTTYYADSVKGRFTISRDNSKNTLFLQVNSLRAEDTAVYYCAKGERIIMMVVLTLFDYWGQGTLVTVSS
VL: QSVLTQPPSVSAAPGQKVTISCPGSSSNIGKNYVSWYQQLPGTAPKLLIYDNNKRPSGIPDRFTGSKSGTSATLDITGLQTGDEADYYCGTWDSSLSAGWVFGGGTKLTVL
B12: C93D6 (antibody, V domains shown)
VH: EVQLVESGGGLVKPGGSLRLSCAASGFTFSSYSMNWVRQAPGKGLEWVSSISSSSSYIYYADSVKGRFTISRDNAKNSLYLQMNSLRAEDTAVYYCASDLMEDYDFLSGSATSPFDYWGQGTLVTVSS
VL: not shown
B13: C81G11 (antibody, V domains shown)
VH: QVQLQESGPGLVKPSGTLSLTCAVSGGSISSSNWWSWVRQPPGKGLEWIGEIYHSGNTNYNPSLTSRVTLSVDKSKNQFSLKLSSVTAADTALYYCAGRFCGSTSCPNWFDPWGQGTLVTVSS
VL: QSALTQPASVSGSPGQSITISCTGTSSDVGSYNLVSWYQQHPGKAPKLMIYEGSKRPSGVSNRFSGSKSGNTASLTISGLQAEDEADYYCCSYAGSSTWVFGGGTKLTVL
B14: C81A3 (antibody, V domains shown)
VH: QVQLQESGPGLVKPSGTLSLTCAVSGGSISSSNWWSWVRQPPGKGLEWIGEIYHSGSTNYNPSLKSRVTISVDKSKNQFSLKLSSVTAADTAVYYCARRYCSGGSCSGFDYWGQGTLVTVSS
VL: B13 VL with Q40H, S96F
B15: C12J11 (antibody, V domains shown)
VH: QVQLQESGPGLVKPSGTLSLTCAVSGGSISSSNWWSWVRQPPGKGLEWIGEIYHSGSTNYNPSLKSRVTISVDKSKNQFSLKLSSVTAADTAVYYCAIRASGYYNWFDPWGQGTLVTVSS
VL: B13 VL with C91Y
B16: C12D6 (antibody, V domains shown)
VH: QLQLQETGPGLVKPSGTLSLTCAVSGDSISSSDWWTWVRQPPGKGLEWIGEIYHSGSTNYNPSLKSRVTISVDKSKNQFSLKLSSVTAADTAVYYCARRGRAASERGTGNFDYWGQGTLVTVSS
VL: B13 VL with G53V
B17: C12I5 (antibody, V domains shown)
VH: B15 VH with I98R, R99G, A100W, S101G, G102S, Y103S, Y104S, N105Y
VL: B13 VL
B18: C12I11 (antibody, V domains shown)
VH: QVQLQESGPGLVKPSGTLSLTCAISGGSISSSNWWSWVRQPPGKGLEWIGEIYHSGSTNYNPSLKSRVTISVDKSKNQFSLKLSSVTAADTAVYYCARGALVPAARLNAFDIWGQGTMVTVSS
VL: B13 VL with W99Y, G103T, L107V
B19: C163E5 (antibody, V domains shown)
VH: QVQLQESGPGLVKPSETLSLTCTVSGASIRSFHWSWIRQPAGKGLEWIGRLLTTGSTNYNRSLKSRVTMSVDTSKNQFSLKLSSVTAADTAVYYCSRGTEMNMEVPGVVTGSEFFDYWGQGTLVTVSS
VL: EIVLTQSPATLSLSPGERATLSCRASQSVSSYLAWYQRKPGQAPRLLIYDASNRATGIPARFSGSGSGTDFTLTISSLEPEDFAVYYCQQRRNWPETFGQGTKLEIK
B20: C83B6 (antibody, V domains shown)
VH: EVQLVESGGGLVKPGGSLRLSCAASGFTFSSYSMNWVRQAPGKGLEWVSYISSSSSTIYYADSVKGRFTISRDNAKNSLYLQMNSLRDEDTAVYYCARDRGGYGPYYYGMDVWGQGTTVTVSS
VL: not shown
B21: C81F5 (antibody, V domains shown)
VH: QVQLVESGGGVVQPGRSLRLSCAASGFTFSNSGMHWVRQAPGKGLEWVAVISYDGSHKYYADSVKGRFTISRDNSKNTLYLQMNTLRAEDTAVYYCAKEESAVAGTGVPYYYYYYMDVWGKGTTVTVSS
VL: not shown
B22: G32L6 (antibody, V domains shown)
VH: QVQLVQSGAEVKKPGASVKVSCKVSGYTLTELSMHWVRQAPGKGLEWMGGFDPEDGETIYAQKFQGRVTMTEDTSTDTAYMELSTLRSEDTAVYYCATAPAVAGTFENYYYYYGLDVWGQGTTVTVSS
VL: not shown
B23: C81H5 (antibody, V domains shown)
VH: QVQLVQSGAEVRKPGASVKVSCKVSEYTLTELSIHWVRQAPGKGLEWMGGFDPEDGETIYAQKFQGRVTMTEDTSTDTAYMELSSLRSEDTAVYYCATAPAYCPGGVCPRGWFDPWGQGTLVTVSS
VL: QSALTQPRSVSGSPGQSVTISCTGTSSDVGGYNYVSWYQQHPGKAPKLMIYDVSKRPSGVPDRFSGSKSGNTASLTISGLQAEDEADYYCCSYAGSYTYVFGTGTKVTVL
B24: C29C2 (antibody, V domains shown)
VH: EVQLVQSGAEVKKPGESLKISCKGSGYSFTSYWIGWVRQMPGKGLEWMGIIYPGDSDTRYSPSFQGQVTISADKSISTAYLQWSSLKASDTAMYYCARLPVSTHPLYYYFGMDVWGQGTTVTVSS
VL: not shown
B25: C12D1 (antibody, V domains shown)
VH: EVQLVQSGAEVIKPGESLKISCKGSGYSFTSYWIGWVRQMPGKGLEWMGIIYPGDSDTRYSPSFQGQVTISADKSISTAYLQWSSLKASDTAIYYCARLGGSVTNIEFIDYWGQGTLVTVSS
VL: not shown
B26: G32L7 (antibody, V domains shown)
VH: EVQLLESGGGSVQPGGSLRLSCAASGFTFSSYAMSWVRQAPGKGLEWVSVISGSGGSTYYADSVKGRFTISRDNSKNTLYLQMNSLRAEDTAVYYCAKAERITMLVVVTLIDYWGQGTLVTVSS
VL: QSVLTQPPSVSAAPGQKVTISCSGSSSNIGNNYVSWYQQLPGTAPKLLIYDNNKRPSGIPDRFSGSKSGTSATLGITGLQTGDEADYYCGTWDSSLSAVVFGGGTKLTVL

Target: SARS-CoV-2 S ectodomain trimer, prefusion-stabilized, 2P variant (Wrapp et al., 2020) (SARS-CoV-2, Wuhan-Hu-1, UniProt P0DTC2, stabilised)

Binder	binding result
B1	binds
B2	binds
B3	binds
B4	binds
B5	binds
B6	binds
B7	binds
B8	binds
B9	binds
B10	binds
B11	binds
B12	binds
B13	binds
B14	binds
B15	binds
B16	binds
B17	binds
B18	binds
B19	binds
B20	binds
B21	binds
B22	binds
B23	binds
B24	binds
B25	binds
B26	binds
